According to paper PMC6957489:

Tests used:
[1] = target: t-SNARE heterodimer with syntaxin-1A labeled at position 203 with cy5 (N-N FRET pair) (rat) (UniProt P32851); assay: FRET or BRET; single-molecule FRET (prism-based TIRF, 100-ms resolution) between cy3-syb2 in v-SNARE 13 nm nanodiscs (ND1) and cy5-syntaxin-1A in t-SNARE nanodiscs; NDs (5 µM) incubated at room temperature 30 min, diluted to 10 pM; no syt1; with EGTA or 500 µM free Ca2+ (Ca2+ had no effect); 100 mM KCl, 25 mM HEPES pH 7.4
[2] = target: t-SNARE heterodimer with syntaxin-1A labeled at position 241 with cy5 (C-C FRET pair) (rat) (UniProt P32851); assay: FRET or BRET; single-molecule FRET as above, with full-length syt1 co-reconstituted in the v-SNARE nanodisc; values in the absence of Ca2+ (EGTA); subsequent Ca2+ (500 µM free) had only subtle effects, with an increase in the highest C-C FRET peak
[3] = target: t-SNARE heterodimer with syntaxin-1A labeled at position 241 with cy5 (C-C FRET pair) (rat) (UniProt P32851); assay: FRET or BRET; single-molecule FRET (prism-based TIRF, 100-ms resolution) between cy3-syb2 in v-SNARE 13 nm nanodiscs (ND1) and cy5-syntaxin-1A in t-SNARE nanodiscs; NDs (5 µM) incubated at room temperature 30 min, diluted to 10 pM; no syt1; with EGTA or 500 µM free Ca2+ (Ca2+ had no effect); 100 mM KCl, 25 mM HEPES pH 7.4

FRET ratio (R), peak of the distribution, N-N pair [1]	FRET ratio (R), C-C pair, first of three states (with apo-syt1) [2]	FRET ratio (R), C-C pair, second of three states (with apo-syt1) [2]	FRET ratio (R), C-C pair, third of three states (with apo-syt1) [2]	FRET ratio (R), peak of the distribution, C-C pair [3]	Substance
0.7					syb2 labeled at position 33 with cy3 (N-N FRET pair) (from UniProt P63045 1-116) (natural protein)
	0.2	0.5	0.7	0.2	syb2 labeled at position 72 with cy3 (C-C FRET pair) (from UniProt P63045 1-116) (natural protein)
